Bridge positions count the residues as written; N and C are the ends. Square brackets hold non-standard residues; d marks the D form. dPhe(3-Cl) = N[C@H](Cc1cccc(Cl)c1)C(=O)O; dPhe(4-Cl) = N[C@H](Cc1ccc(Cl)cc1)C(=O)O; dPhe(4-Me) = Cc1ccc(C[C@@H](N)C(=O)O)cc1; dPhe(2-Cl) = N[C@H](Cc1ccccc1Cl)C(=O)O; dPhe(4-F) = N[C@H](Cc1ccc(F)cc1)C(=O)O; dPhe(2-F) = N[C@H](Cc1ccccc1F)C(=O)O; Nle = CCCC[C@H](N)C(=O)O; Orn = NCCC[C@H](N)C(=O)O; Dab = NCC[C@H](N)C(=O)O; Dap = NC[C@H](N)C(=O)O

The target of experiment [1] is recombinant human melanocortin-4 receptor hMCR-4 (human) (UniProt P32245). Put plainly: competition with [I125]-NDP-α-MSH; HEK-293 hMCR-4 membrane homogenates.
Experiment [2] addresses recombinant human melanocortin-1 receptor hMCR-1a (human) (UniProt Q01726). Put plainly: competition with [I125]-NDP-α-MSH; HEK-293 hMCR-1a membrane homogenates.

recombinant human melanocortin-1 receptor hMCR-1a (human), sequence (Q01726 whole entry): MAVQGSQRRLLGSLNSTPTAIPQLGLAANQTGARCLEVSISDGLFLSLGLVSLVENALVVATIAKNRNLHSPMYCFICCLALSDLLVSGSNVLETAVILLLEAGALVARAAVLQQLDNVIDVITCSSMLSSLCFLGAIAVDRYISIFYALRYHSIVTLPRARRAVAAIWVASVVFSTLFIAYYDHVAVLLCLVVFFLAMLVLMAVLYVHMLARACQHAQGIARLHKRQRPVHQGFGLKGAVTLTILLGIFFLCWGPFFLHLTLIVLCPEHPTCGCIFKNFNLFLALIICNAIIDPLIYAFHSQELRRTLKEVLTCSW
recombinant human melanocortin-4 receptor hMCR-4 (human), sequence (P32245 whole entry): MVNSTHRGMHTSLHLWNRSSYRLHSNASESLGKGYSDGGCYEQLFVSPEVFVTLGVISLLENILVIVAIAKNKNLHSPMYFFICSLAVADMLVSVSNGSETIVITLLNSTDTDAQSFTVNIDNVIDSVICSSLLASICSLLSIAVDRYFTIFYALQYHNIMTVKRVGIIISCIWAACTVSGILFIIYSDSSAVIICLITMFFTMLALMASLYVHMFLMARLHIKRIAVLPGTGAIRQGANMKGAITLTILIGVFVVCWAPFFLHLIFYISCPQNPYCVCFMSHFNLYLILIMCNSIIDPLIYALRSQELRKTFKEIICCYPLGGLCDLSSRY

With “Ac-D-Phe-cyclo(Glu-His-D-Phe-Arg-Dab)-Trp-NH2 (peptide)”, the inhibition constant Ki in experiment [1] came to 535 nM.
“Ac-Nle-cyclo(Dab-His-D-Phe-Arg-Dab)-Trp-NH2 with bridge C(═O)-(CH2)2-C(═O) (peptide)”: the Ki in experiment [1] is 380 nM; in experiment [2] it was 0.015 nM.
“Ac-Nle-cyclo(Dab-His-D-Phe-Arg-Dap)-Trp-NH2 with bridge C(═O)-(CH2)2-C(═O) (peptide)”: the Ki in experiment [1] turned out to be 325 nM; in experiment [2] it was 0.025 nM.
In the same order, the values of “Ac-Nle-cyclo(Dap-His-D-Phe-Arg-Dab)-Trp-NH2 with bridge C(═O)-(CH2)2-C(═O) (peptide)” are 860 nM and 0.065 nM.
In the same order, the values of “Ac-Nle-cyclo(Dap-His-D-Phe-Arg-Dap)-Trp-NH2 with bridge C(═O)-(CH2)2-C(═O) (peptide)” are 680 nM and 0.03 nM.
In the case of “Ac-Nle-cyclo(Glu-Ala-D-Phe-Arg-Dab)-Trp-NH2 (SEQ ID NO: 52) (peptide)”, in experiment [1], the Ki was determined as 455 nM.
“Ac-Nle-cyclo(Glu-Ala-D-Phe-Arg-Dab)-Trp-NH2 (peptide)”: in experiment [1], the Ki was 455 nM.
Regarding “Ac-Nle-cyclo(Glu-Arg-D-Phe-Arg-Dab)-Trp-NH2 (SEQ ID NO: 53) (peptide)”, the inhibitory constant (Ki) in experiment [1] was found to be 20 nM.
Same read-out and setting: the value for “Ac-Nle-cyclo(Glu-Arg-D-Phe-Arg-Dab)-Trp-NH2 (peptide)” was 20 nM.
Regarding “Ac-Nle-cyclo(Glu-Cit-D-Phe-Arg-Dab)-Trp-NH2 (SEQ ID NO: 54) (peptide)”, the inhibition constant (Ki) in experiment [1] stood at 98 nM; in experiment [2], 0.45 nM.
With “Ac-Nle-cyclo(Glu-Cit-D-Phe-Arg-Dab)-Trp-NH2 (peptide)”, the figures for the Ki in experiment [1] and in experiment [2] were 98 nM and 0.45 nM, respectively.
In the same order, the values of “Ac-Nle-cyclo(Glu-Dab-D-Phe-Arg-Dab)-Trp-NH2 (SEQ ID NO: 57) (peptide)” are 98 nM and 0.05 nM.
Turning to “Ac-Nle-cyclo(Glu-Dab-D-Phe-Arg-Dab)-Trp-NH2 (peptide)”, the inhibition constant (Ki) stood at 98 nM in experiment [1] and 0.05 nM in experiment [2].
In the same order, the values of “Ac-Nle-cyclo(Glu-His-D-Phe-Arg-Dab)-D-Nal 1-NH2 (peptide)” are 2 nM and 0.1 nM.
The matching figures for “Ac-Nle-cyclo(Glu-His-D-Phe-Arg-Dab)-D-Trp-NH2 (peptide)”: 33 nM and 0.55 nM.
With “Ac-Nle-cyclo(Glu-His-D-Phe-Arg-Dab)-Nal 1-NH2 (peptide)”, the inhibition constant (Ki) in experiment [1] was determined as 0.75 nM; in experiment [2], 0.005 nM.
For the substance “Ac-Nle-cyclo(Glu-His-D-Phe-Arg-Dab)-Nal 2-NH2 (SEQ ID NO: 14) (peptide)”, the inhibition constant Ki in experiment [1] is 0.095 nM; in experiment [2], 0.02 nM.
As for “Ac-Nle-cyclo(Glu-His-D-Phe-Arg-Dab)-Nal 2-NH2 (peptide)”, the values for the inhibitory constant (Ki) in experiment [1] and in experiment [2] were 3 nM and 0.01 nM, respectively.
Consider “Ac-Nle-cyclo(Glu-His-D-Phe-Arg-Dab)-Trp-NH2 (peptide)”, for which the inhibitory constant (Ki) in experiment [1] is 110 nM.
With “Ac-Nle-cyclo(Glu-His-D-Phe-Arg-Dab)-Trp-OH (peptide)”, the results for the inhibition constant Ki in experiment [1] and in experiment [2] were 10000 nM and 2 nM, respectively.
With “Ac-Nle-cyclo(Glu-His-D-Phe-Arg-Dap)-Trp-NH2 (peptide)”, in experiment [1], the inhibitory constant (Ki) is 358 nM.
Regarding “Ac-Nle-cyclo(Glu-His-D-Phe-Arg-Dap)-Trp-OH (peptide)”, the Ki in experiment [1] was determined as 4700 nM; in experiment [2], 1 nM.
Regarding “Ac-Nle-cyclo(Glu-His-D-Phe-Arg-Orn)-Trp-NH2 (peptide)”, in experiment [1], the Ki was determined as 295 nM.
On the same count and under the same terms, the value for “Ac-Nle-cyclo(Glu-Lys-D-Phe-Arg-Dab)-Trp-NH2 (SEQ ID NO: 56) (peptide)” was 95 nM.
Turning to “Ac-Nle-cyclo(Glu-Lys-D-Phe-Arg-Dab)-Trp-NH2 (peptide)”, the inhibition constant (Ki) in experiment [1] was 95 nM.
Turning to “Ac-Nle-cyclo(Glu-Orn-D-Phe(3,4-F)-Arg-Dab)-NH2 (peptide)”, the Ki in experiment [1] was 10000 nM; in experiment [2] it was 40 nM.
For “Ac-Nle-cyclo(Glu-Orn-D-Phe(4-OMe)-Arg-Dab)-NH2 (peptide)”, the Ki in experiment [1] was found to be 10000 nM; in experiment [2], 2 nM.
In the same order, the values of “Ac-Nle-cyclo(Glu-Orn-D-Phe-Arg-Dab)-Trp-NH2 (SEQ ID NO: 58) (peptide)” are 45 nM and 0.015 nM.
The matching figures for “Ac-Nle-cyclo(Glu-Orn-D-Phe-Arg-Dab)-Trp-NH2 (peptide)”: 45 nM and 0.015 nM.
The matching figures for “Ac-Nle-cyclo(Glu-Pro-D-Phe-Arg-Dab)-NH2 (peptide)”: 10000 nM and 2250 nM.
On to Ac-[Nle]DH[dF]R[Dap]W-NH2 (lactam 2-6), for which the Ki was determined as 1320 nM in experiment [1] and 2 nM in experiment [2].
Ac-[Nle]EH[dF]A[Dab]-NH2 (lactam 2-6): the Ki in experiment [1] stood at 10000 nM; in experiment [2] it was 645 nM.
Turning to “Ac-[Nle]EH[dF]A[Dab]-NH2 (lactam 2-6; SEQ ID NO: 48)”, the inhibition constant Ki in experiment [1] was 10000 nM; in experiment [2], 645 nM.
On to Ac-[Nle]EH[dF]A[Dab]W-NH2 (lactam 2-6), for which, in experiment [1], the Ki is 10000 nM.
On to Ac-[Nle]EH[dF]G[Dab]W-NH2 (lactam 2-6), for which the Ki worked out at 10000 nM in experiment [1] and 9 nM in experiment [2].
For the substance Ac-[Nle]EH[dF]R[Dab]-NH2 (lactam 2-6), the Ki in experiment [1] was determined as 10000 nM; in experiment [2], 7 nM.
“Ac-[Nle]EH[dF]R[Dab]-NH2 (lactam 2-6; SEQ ID NO: 47)”: the inhibition constant (Ki) in experiment [1] was found to be 10000 nM; in experiment [2] it was 7 nM.
In the same order, the values of Ac-[Nle]EH[dF]R[Dab]A-NH2 (lactam 2-6) are 7480 nM and 2 nM.
The matching figures for Ac-[Nle]EH[dF]R[Dab]K-NH2 (lactam 2-6): 7380 nM and 2 nM.
The matching figures for Ac-[Nle]EH[dF][Dab]-NH2 (lactam 2-5): 10000 nM and 10000 nM.
Take Ac-[Nle]EP[dF]R[Dab]W-NH2 (lactam 2-6): the inhibition constant Ki in experiment [1] is 185 nM; in experiment [2], 3 nM.
The matching figures for “Ac-[Nle]E[Orn][dF]R[Dab]-NH2 (lactam 2-6)”: 3620 nM and 4 nM.
In the same order, the values of “Ac-[Nle]E[Orn][dPhe(2-Cl)]R[Dab]-NH2 (lactam 2-6)” are 10000 nM and 30 nM.
With “Ac-[Nle]E[Orn][dPhe(2-F)]R[Dab]-NH2 (lactam 2-6)”, the values for the Ki in experiment [1] and in experiment [2] were 10000 nM and 18 nM, respectively.
In the same order, the values of “Ac-[Nle]E[Orn][dPhe(3-Cl)]R[Dab]-NH2 (lactam 2-6)” are 10000 nM and 35 nM.
The matching figures for “Ac-[Nle]E[Orn][dPhe(4-Cl)]R[Dab]-NH2 (lactam 2-6)”: 1240 nM and 2 nM.
Regarding “Ac-[Nle]E[Orn][dPhe(4-F)]R[Dab]-NH2 (lactam 2-6)”, the results for the inhibitory constant (Ki) in experiment [1] and in experiment [2] were 10000 nM and 20 nM, respectively.
The matching figures for “Ac-[Nle]E[Orn][dPhe(4-Me)]R[Dab]-NH2 (lactam 2-6)”: 10000 nM and 3 nM.

One may read the Ki as a dissociation constant, usually derived from enzyme kinetics or from competition with a known ligand.

(Values after patent US20120225828A1.)
